In IntAct's records for PubMed 31515488:

B1: SH2 domain-containing protein 4A (Homo sapiens), Q9H788 (parent)
chain: MLKQILSEMYIDPDLLAELSEEQKQILFFKMREEQIRRWKEREAAMERKESLPVKPRPKKENGKSVHWKLGADKEVWVWVMGEHHLDKPYDVLCNEIIAERARLKAEQEAEEPRKTHSEEFTNSLKTKSQYHDLQAPDNQQTKDIWKKVAEKEELEQGSRPAPTLEEEKIRSLSSSSRNIQQMLADSINRMKAYAFHQKKESMKKKQDEEINQIEEERTKQICKSWKEDSEWQASLRKSKAADEKRRSLAKQAREDYKRLSLGAQKGRGGERLQSPLRVPQKPERPPLPPKPQFLNSGAYPQKPLRNQGVVRTLSSSAQEDIIRWFKEEQLPLRAGYQKTSDTIAPWFHGILTLKKANELLLSTGMPGSFLIRVSERIKGYALSYLSEDGCKHFLIDASADAYSFLGVDQLQHATLADLVEYHKEEPITSLGKELLLYPCGQQDQLPDYLELFE
partner: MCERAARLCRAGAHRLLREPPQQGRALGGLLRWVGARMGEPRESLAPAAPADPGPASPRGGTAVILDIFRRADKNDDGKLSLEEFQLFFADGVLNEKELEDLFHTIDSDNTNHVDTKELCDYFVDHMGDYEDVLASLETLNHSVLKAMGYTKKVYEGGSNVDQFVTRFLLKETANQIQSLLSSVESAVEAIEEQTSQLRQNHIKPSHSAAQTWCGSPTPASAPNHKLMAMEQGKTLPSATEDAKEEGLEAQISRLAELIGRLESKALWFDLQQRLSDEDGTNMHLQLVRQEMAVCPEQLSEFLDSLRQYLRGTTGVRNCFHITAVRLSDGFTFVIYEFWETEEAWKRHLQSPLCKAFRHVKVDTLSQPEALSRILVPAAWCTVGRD
B2: Tripartite motif-containing protein 59 (Homo sapiens), Q8IWR1 (parent)
chain: MHNFEEELTCPICYSIFEDPRVLPCSHTFCRNCLENILQASGNFYIWRPLRIPLKCPNCRSITEIAPTGIESLPVNFALRAIIEKYQQEDHPDIVTCPEHYRQPLNVYCLLDKKLVCGHCLTIGQHHGHPIDDLQSAYLKEKDTPQKLLEQLTDTHWTDLTHLIEKLKEQKSHSEKMIQGDKEAVLQYFKELNDTLEQKKKSFLTALCDVGNLINQEYTPQIERMKEIREQQLELMALTISLQEESPLKFLEKVDDVRQHVQILKQRPLPEVQPVEIYPRVSKILKEEWSRTEIGQIKNVLIPKMKISPKRMSCSWPGKDEKEVEFLKILNIVVVTLISVILMSILFFNQHIITFLSEITLIWFSEASLSVYQSLSNSLHKVKNILCHIFYLLKEFVWKIVSH
partner: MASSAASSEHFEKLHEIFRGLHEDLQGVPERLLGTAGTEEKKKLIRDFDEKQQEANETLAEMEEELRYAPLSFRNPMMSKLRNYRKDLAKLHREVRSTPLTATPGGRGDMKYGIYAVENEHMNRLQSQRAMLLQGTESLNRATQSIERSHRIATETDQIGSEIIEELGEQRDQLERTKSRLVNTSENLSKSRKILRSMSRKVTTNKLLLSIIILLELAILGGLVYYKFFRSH
B3: Keratin-associated protein 12-2 (Homo sapiens), P59991 (parent)
chain: MCHTSCSSGCQPACCAPSPCQPACCVPSSCQASCCVPVGCQSSVCVPVSFKPAVCLPVSCQSSVCVPMSFKSAVCVPVSCQSSVCVPVSCRPIVCAAPSCQSSLCVPVSCRPVVYAAPSCQSSGCCQPSCTSVLCRPISYSISSCC
partner: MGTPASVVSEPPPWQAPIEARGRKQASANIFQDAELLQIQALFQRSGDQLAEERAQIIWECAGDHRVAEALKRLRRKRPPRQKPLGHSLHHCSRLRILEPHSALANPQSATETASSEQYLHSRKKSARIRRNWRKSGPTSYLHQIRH
B4: Zinc finger CCHC domain-containing protein 10 (Homo sapiens), Q8TBK6 (parent)
chain: MATPMHRLIARRQAFDTELQPVKTFWILIQPSIVISEANKQHVRCQKCLEFGHWTYECTGKRKYLHRPSRTAELKKALKEKENRLLLQQSIGETNVERKAKKKRSKSVTSSSSSSSDSSASDSSSESEETSTSSSSEDSDTDESSSSSSSSASSTTSSSSSDSDSDSSSSSSSSTSTDSSSDDEPPKKKKKK
partner: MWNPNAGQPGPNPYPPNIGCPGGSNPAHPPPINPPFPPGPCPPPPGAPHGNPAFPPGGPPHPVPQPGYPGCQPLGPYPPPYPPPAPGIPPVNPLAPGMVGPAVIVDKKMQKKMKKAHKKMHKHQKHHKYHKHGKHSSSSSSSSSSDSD
B5: AN1-type zinc finger protein 2B (Homo sapiens), Q8WV99 (parent)
chain: MEFPDLGAHCSEPSCQRLDFLPLKCDACSGIFCADHVAYAQHHCGSAYQKDIQVPVCPLCNVPVPVARGEPPDRAVGEHIDRDCRSDPAQQKRKIFTNKCERAGCRQREMMKLTCERCSRNFCIKHRHPLDHDCSGEGHPTSRAGLAAISRAQAVASTSTVPSPSQTMPSCTSPSRATTRSPSWTAPPVIALQNGLSEDEALQRALEMSLAETKPQVPSCQEEEDLALAQALSASEAEYQRQQAQSRSSKPSNCSLC
partner: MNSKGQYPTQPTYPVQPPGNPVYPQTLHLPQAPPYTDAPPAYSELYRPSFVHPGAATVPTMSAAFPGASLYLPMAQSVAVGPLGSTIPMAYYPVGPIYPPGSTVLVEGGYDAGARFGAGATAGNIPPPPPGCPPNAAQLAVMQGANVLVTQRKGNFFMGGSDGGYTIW

Variants of: B1
Conditions: with neca2_human NECAB2, Q7Z6G3

effect of a mutation on the interaction	Variant
with no effect	K303R

Variants of: B2
Conditions: with vti1b_human VTI1B

effect of a mutation on the interaction	Variant
with no effect	I277V

Variants of: B3
Conditions: with avpi1_human AVPI1, Q5T686

effect of a mutation on the interaction	Variant
with no effect	A16T
with no effect	S143P

Variants of: B4
Conditions: with prr13_human PRR13, Q9NZ81

effect of a mutation on the interaction	Variant
with no effect	S153P

Variants of: B5
Conditions: with dazp2_human DAZAP2, Q15038

effect of a mutation on the interaction	Variant
with no effect	P71H
